Tests used:
[1] = biological target: CD38 on the surface of the HCL cell line JOK-1 and its derivatives (JOK-Empty, JOK-RhoH, JOK-CD38-WT) (human) (UniProt P28907); assay: flow cytometry, FITC-IB6 on JOK-Empty cells (RhoH not induced), mean of 4 experiments
[2] = biological target: CD38 on the surface of the HCL cell line JOK-1 and its derivatives (JOK-Empty, JOK-RhoH, JOK-CD38-WT) (human) (UniProt P28907); assay: flow cytometry, FITC-IB6 on JOK-RhoH cells (RhoH induced, lower CD38 expression), mean of 4 experiments

**Q.** “FITC-conjugated version of the monoclonal antibody IB6 directed against CD38 (Miltenyi Biotec)” was tested. Which mean fluorescence intensity (after subtraction of isotype control) [1] did it give?
**A.** 71.8

**Q.** What about the mean fluorescence intensity (after subtraction of isotype control) [2] of the same substance?
**A.** 19.7
